Assay results as given in patent US20030199671A1, “Binding molecules for Fc-region polypeptides” (priority 2001, published 2003).
Like-named read-outs stand apart in the source and are kept apart here.

Columns and labels:
human IgG1 = biological target: T1, human IgG1 (Homo sapiens, UniProt P01857); assay type: binding; details: for % IgG Capture - Batch Binding, Human IgG1: Table 9, immobilized peptide, 5.0 mg/ml resin load
T1 construct: all human subtypes derived from myeloma patients; purchased Calbiochem 400120; host or cells: myeloma patients
T1 sequence (P01857 1-330 isoform P01857-1): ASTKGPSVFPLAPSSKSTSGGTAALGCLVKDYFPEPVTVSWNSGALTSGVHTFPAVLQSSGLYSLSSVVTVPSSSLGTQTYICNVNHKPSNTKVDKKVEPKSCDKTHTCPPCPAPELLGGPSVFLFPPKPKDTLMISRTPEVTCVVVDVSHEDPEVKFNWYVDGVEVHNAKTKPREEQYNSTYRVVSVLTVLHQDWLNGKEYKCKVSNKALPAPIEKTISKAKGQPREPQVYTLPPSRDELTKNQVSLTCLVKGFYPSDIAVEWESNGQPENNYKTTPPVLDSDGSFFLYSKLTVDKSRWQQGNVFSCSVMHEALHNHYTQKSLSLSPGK
Method in brief: (§1)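 Steps: dilute IgG in PBST or TBST; incubate with immobilized peptide 1-1.5 h, RT; collect unbound by centrifugation; measure A280; wash three times; elute with 0.1 M sodium bicarbonate pH 8.5 and/or 0.1 M sodium citrate pH 4.0 for 30-60 min and quantitate.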

human IgG2 = biological target: T2, human IgG2 (Homo sapiens, UniProt P01859); assay type: binding; details: for % IgG Capture - Batch Binding, Human IgG2: Table 9, immobilized peptide, 5.0 mg/ml resin load
T2 construct: all human subtypes derived from myeloma patients; purchased Calbiochem 400122; host or cells: myeloma patients
T2 sequence (P01859 1-326 isoform P01859-1): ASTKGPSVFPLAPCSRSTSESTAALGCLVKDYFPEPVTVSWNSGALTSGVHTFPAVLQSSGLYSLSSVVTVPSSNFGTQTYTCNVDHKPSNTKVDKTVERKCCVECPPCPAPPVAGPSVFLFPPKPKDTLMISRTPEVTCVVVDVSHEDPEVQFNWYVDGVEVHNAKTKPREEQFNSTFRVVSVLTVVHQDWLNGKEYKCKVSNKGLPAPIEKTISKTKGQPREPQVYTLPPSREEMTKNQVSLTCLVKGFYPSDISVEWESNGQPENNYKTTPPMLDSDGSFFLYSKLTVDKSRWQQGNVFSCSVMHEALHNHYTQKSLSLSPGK
Method in brief: (§2)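 Read-out is A280 of unbound IgG (1.4 mg/ml extinction coefficient), with percent bound derived against non-filtered or negative controls. Targets were incubated with immobilized peptides in PBST or TBST for 1-1.5 h at room temperature. Hydrolyzed Sepharose and immobilized Protein A serve as negative and positive controls.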

bovine IgG = assay type: binding
Method in brief: as §2

goat IgG = assay type: binding
Method in brief: as §2

human IgG [1] = assay type: binding
Method in brief: as §2

mouse IgG = assay type: binding
Method in brief: as §2

IgG4 = IgG4 (Homo sapiens, UniProt P01861); assay type: binding; parameters: all human subtypes derived from myeloma patients; purchased Calbiochem 400126; host or cells: myeloma patients; details: for % IgG Capture - Batch Binding, Human IgG4: Table 9, immobilized peptide, 5.0 mg/ml resin load
Sequence of IgG4 (P01861 1-327 isoform P01861-1): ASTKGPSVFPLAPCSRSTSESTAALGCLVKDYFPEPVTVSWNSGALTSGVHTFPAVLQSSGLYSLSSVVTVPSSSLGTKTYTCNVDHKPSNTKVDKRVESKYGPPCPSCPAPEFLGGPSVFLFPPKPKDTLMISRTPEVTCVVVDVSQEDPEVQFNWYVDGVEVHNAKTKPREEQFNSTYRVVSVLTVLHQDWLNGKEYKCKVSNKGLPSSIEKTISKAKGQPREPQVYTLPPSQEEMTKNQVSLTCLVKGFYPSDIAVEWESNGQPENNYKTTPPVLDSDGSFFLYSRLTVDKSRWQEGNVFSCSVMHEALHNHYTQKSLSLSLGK
Method in brief: as §2

IgG3 = IgG3 (Homo sapiens, UniProt P01860); assay type: binding; parameters: all human subtypes derived from myeloma patients; purchased Calbiochem 400124; host or cells: myeloma patients; details: for % IgG Capture - Batch Binding, Human IgG3: Table 9, immobilized peptide, 5.0 mg/ml resin load
Sequence of IgG3 (P01860 1-377 isoform P01860-1): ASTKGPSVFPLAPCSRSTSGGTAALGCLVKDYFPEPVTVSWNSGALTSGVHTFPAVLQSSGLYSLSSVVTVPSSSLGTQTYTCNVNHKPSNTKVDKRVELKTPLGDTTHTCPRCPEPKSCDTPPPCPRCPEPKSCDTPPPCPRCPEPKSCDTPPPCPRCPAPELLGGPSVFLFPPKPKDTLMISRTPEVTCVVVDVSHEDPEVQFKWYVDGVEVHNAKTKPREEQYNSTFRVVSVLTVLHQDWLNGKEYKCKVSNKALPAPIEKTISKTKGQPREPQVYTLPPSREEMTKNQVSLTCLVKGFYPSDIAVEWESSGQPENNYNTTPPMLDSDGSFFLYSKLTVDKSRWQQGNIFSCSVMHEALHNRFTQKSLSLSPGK
Method in brief: as §1

human IgG [2] = assay: Static (filterplate) binding capacity; details: Ligand Density not determined
[3] = Table 10, elution 0.1 M sodium bicarbonate buffer, pH 8.5
[4] = Table 10, elution 0.1 M sodium citrate buffer, pH 4.0
[5] = Table 13, average ligand density 1.8 μM/ml
[6] = Table 14, average ligand density 1.8 μM/ml

Molecule: CC(=O)N[C@@H](C)C(=O)NCC(=O)N[C@@H](C)C(=O)N[C@@H](C)C(=O)N[C@H](C(=O)N[C@H]1CSSC[C@@H](C(=O)N[C@H](C(=O)N[C@@H](CC(=O)O)C(=O)N[C@@H](CO)C(=O)N2CCC[C@H]2C(=O)NCC(=O)N2CCC[C@H]2C(=O)N[C@@H](CCC(=O)O)C(=O)NCC(=O)NCC(=O)NCC(=O)N[C@@H](CCCCN)C(N)=O)[C@@H](C)O)NC(=O)[C@H](Cc2ccccc2)NC(=O)[C@H](Cc2c[nH]c3ccccc23)NC(=O)[C@H](CCC(N)=O)NC(=O)[C@H](Cc2ccc(O)cc2)NC(=O)[C@H](Cc2ccc(O)cc2)NC(=O)[C@H](Cc2c[nH]c3ccccc23)NC(=O)[C@H](Cc2ccc(O)cc2)NC(=O)[C@H](CO)NC(=O)[C@H]([C@@H](C)O)NC(=O)[C@H](CO)NC1=O)[C@@H](C)O [DX398]
- % IgG Capture - Batch Binding, Human IgG1 (human IgG1): 6%
- % IgG Capture - Batch Binding, Human IgG2 (human IgG2): 0%
- % IgG Capture - Batch Binding, Bovine IgG (bovine IgG; Table 11, unfractionated IgG): 2%
- % IgG Capture - Batch Binding, Goat IgG (goat IgG; Table 11, unfractionated IgG): 0%
- % IgG Capture - Batch Binding, Human IgG (human IgG [1]; Table 11, unfractionated IgG): 9%
- % IgG Capture - Batch Binding, Mouse IgG (mouse IgG; Table 11, unfractionated IgG): 4%
- % IgG Capture - Batch Binding, Human IgG4 (IgG4): 2%
- % IgG Capture - Batch Binding, Human IgG3 (IgG3): 79%

Molecule: Prot. A: immobilized recombinant Protein A (RepliGen Corp., product no. IPA-400), positive control [reference compound]
- % IgG Capture - Batch Binding, Human IgG1 (human IgG1): 95%
- Human IgG1 bdg % (% of Total Load) (human IgG1; Table 10, batch binding): 93%
- Human IgG1 elu pH 8.5 (% of Total Load) (human IgG1; [3]): 2%
- Human IgG1 elu pH 4.0 (% of Total Load) (human IgG1; [4]): 79%
- hIgG1 elution pH 2.5 (% of Total Load) (human IgG1; Table 13): 80%
- hIgG1 elution pH 3.0 (% of Total Load) (human IgG1; Table 13): 80%
- hIgG1 elution pH 3.5 (% of Total Load) (human IgG1; Table 13): 86%
- hIgG1 elution pH 4.5 (% of Total Load) (human IgG1; Table 13): 29%
- hIgG1 elution pH 5.5 (% of Total Load) (human IgG1; Table 13): 3%
- hIgG1 elution pH 9.0 (% of Total Load) (human IgG1; Table 13): 3%
- hIgG1 elution pH 9.5 (% of Total Load) (human IgG1; Table 13): 3%
- hIgG1 Bound (% of Total Load) (human IgG1; [5]): 96%
- % IgG Capture - Batch Binding, Human IgG2 (human IgG2): 92%
- Human IgG2 bdg % (% of Total Load) (human IgG2; Table 10, batch binding): 93%
- Human IgG2 elu pH 8.5 (% of Total Load) (human IgG2; [3]): 8%
- Human IgG2 elu pH 4.0 (% of Total Load) (human IgG2; [4]): 75%
- hIgG2 elution pH 2.5 (% of Total Load) (human IgG2; Table 13): 75%
- hIgG2 elution pH 3.0 (% of Total Load) (human IgG2; Table 13): 75%
- hIgG2 elution pH 3.5 (% of Total Load) (human IgG2; Table 13): 76%
- hIgG2 elution pH 4.5 (% of Total Load) (human IgG2; Table 13): 65%
- hIgG2 elution pH 5.5 (% of Total Load) (human IgG2; Table 13): 22%
- hIgG2 elution pH 9.0 (% of Total Load) (human IgG2; Table 13): 13%
- hIgG2 elution pH 9.5 (% of Total Load) (human IgG2; Table 13): 18%
- hIgG2 Bound (% of Total Load) (human IgG2; [5]): 85%
- % IgG Capture - Batch Binding, Bovine IgG (bovine IgG; Table 11, unfractionated IgG): 72%
- % IgG Capture - Batch Binding, Bovine IgG (bovine IgG; [6]): 60%
- % IgG Capture - Batch Binding, Goat IgG (goat IgG; Table 11, unfractionated IgG): 23%
- % IgG Capture - Batch Binding, Goat IgG (goat IgG; [6]): 20%
- % IgG Capture - Batch Binding, Human IgG (human IgG [1]; Table 11, unfractionated IgG): 86%
- % IgG Capture - Batch Binding, Human IgG (human IgG [1]; [6]): 81%
- % IgG Capture - Batch Binding, Mouse IgG (mouse IgG; Table 11, unfractionated IgG): 77%
- % IgG Capture - Batch Binding, Mouse IgG (mouse IgG; [6]): 69%
- % IgG Capture - Batch Binding, Human IgG4 (IgG4): 96%
- Human IgG4 bdg % (% of Total Load) (IgG4; Table 10, batch binding): 92%
- Human IgG4 elu pH 8.5 (% of Total Load) (IgG4; [3]): 2%
- Human IgG4 elu pH 4.0 (% of Total Load) (IgG4; [4]): 95%
- hIgG4 elution pH 2.5 (% of Total Load) (IgG4; Table 13): 70%
- hIgG4 elution pH 3.0 (% of Total Load) (IgG4; Table 13): 77%
- hIgG4 elution pH 3.5 (% of Total Load) (IgG4; Table 13): 87%
- hIgG4 elution pH 4.5 (% of Total Load) (IgG4; Table 13): 27%
- hIgG4 elution pH 5.5 (% of Total Load) (IgG4; Table 13): 6%
- hIgG4 elution pH 9.0 (% of Total Load) (IgG4; Table 13): 7%
- hIgG4 elution pH 9.5 (% of Total Load) (IgG4; Table 13): 8%
- hIgG4 Bound (% of Total Load) (IgG4; [5]): 89%
- % IgG Capture - Batch Binding, Human IgG3 (IgG3): 1%
- Human IgG3 bdg % (% of Total Load) (IgG3; Table 10, batch binding): 5%
- Human IgG3 elu pH 8.5 (% of Total Load) (IgG3; [3]): 0%
- Human IgG3 elu pH 4.0 (% of Total Load) (IgG3; [4]): 0%
- hIgG3 elution pH 2.5 (% of Total Load) (IgG3; Table 13): 0%
- hIgG3 elution pH 3.0 (% of Total Load) (IgG3; Table 13): 0%
- hIgG3 elution pH 3.5 (% of Total Load) (IgG3; Table 13): 0%
- hIgG3 elution pH 4.5 (% of Total Load) (IgG3; Table 13): 0%
- hIgG3 elution pH 5.5 (% of Total Load) (IgG3; Table 13): 0%
- hIgG3 elution pH 9.0 (% of Total Load) (IgG3; Table 13): 0%
- hIgG3 elution pH 9.5 (% of Total Load) (IgG3; Table 13): 0%
- hIgG3 Bound (% of Total Load) (IgG3; [5]): 0%
- Capacity (mg IgG/mL resin) Static (human IgG [2]): 11.1 mg IgG/mL resin
